# Reference: US20250034269A1 (Hoffmann-La Roche, published 2025)
# Legend:
# [1] = biological target: T1, dimeric human LTBR-Fc biotinylated (P1AE2401) (human, UniProt P36941 31-227, biotinylated in vitro); assay: direct ELISA
# T1 construct: bought from R&D Systems (7538-LR); also called human LTBR ECD; not shown: human IgG1 Fc-Fragment
# [2] = biological target: T2, dimeric murine LTBR-Fc disulfide-linked homodimer biotinylated (P1AE2655) (mouse; human, UniProt P50284 31-223, biotinylated in vitro); assay: direct ELISA
# T2 construct: also called murine LTBR ECD; not shown: human IgG1 Fc-Fragment
# [3] = biological target: monomeric N-terminal cynomolgus LTbR (ECD full length) hu IgG1 Fc-fusion kih HRYF avi biotinylated (P1AE2656) (cynomolgus, UniProt P0DOX5 223-449 = IgG part, biotinylated avi tag); assay: direct ELISA
# [4] = biological target: T3, human LTBR ECD (S28-M227) N- and C-terminally extended-Fc-fusion wt kih HRYF-Avi-His biotinylated (P1AE7979) (human, UniProt P0DOX5 223-449 = IgG part, biotinylated avi tag); assay: SPR, IgG captured;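 further: rate constants and KD obtained by fitting double-referenced sensorgrams to a 1:1 Langmuir binding model, with dissociation followed for 600 s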
# T3 construct: also called hu LTBR
# [5] = biological target: T4, monomeric cynomolgus LTBR ECD (S28-M227) Fc fusion avi biotinylated (P1AE4411) (cynomolgus, UniProt P0DOX5 223-449 = IgG part, biotinylated avi tag); assay: SPR, IgG captured;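 further: rate constants and KD obtained by fitting double-referenced sensorgrams to a 1:1 Langmuir binding model, with dissociation followed for 600 s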
# T4 construct: also called cyno LTBR
# [6] = biological target: T1, dimeric human LTBR-Fc biotinylated …; assay: competition ELISA vs human LIGHT
# [7] = biological target: human LTBR on cells (human, UniProt P36941 31-435); assay: cell-based or functional assay
# [8] = biological target: T1, dimeric human LTBR-Fc biotinylated …; assay: competition ELISA vs lymphotoxin α1β2 (P1AE1235)
# [9] = biological target: T5, monomeric murine LTBR ECD (S28-L223) Fc fusion avi biotinylated (P1AE4410) (mouse, UniProt P0DOX5 223-449 = IgG part, biotinylated avi tag); assay: SPR
# T5 construct: also called mu LTBR
binder,measurement,setting,value
"P1AE9450 (antibody, human IgG1, kappa, L234A L235A, V domains shown, human IgG1 PG LALA; from transgenic rabbit immunization; also called LTBR (9450)) VH: EVQLLESGGGLVQPGGSLRLSCAASGFTVSSYVMKWFRQAPGKGLEWVSSISGSGGRPFYADSVKGRFTISRDNSKNALYLQMNSLRAEDTAVYYCANDMDVWGQGTTVTVSS VL: DIQMTQSPSSLSASVGDRVTITCRASQDISSFLKWYQQKPGKAPTLLIYAASALQSGVPSRFSGSGSGTDFTLTISSLQPEDFATYYCQQYNTYPLTFGGGTKVDIKR",EC50,[1],3.8 nM
same,max. binding (OD),[1],2.77 OD
same,max. binding (OD),[2],0.235 OD
same,EC50,[3],4.02 nM
same,max. binding (OD),[3],3.18 OD
same,binding result,[4],binds
same,binding result,[5],binds
same,rel. fit bottom (OD),[6],0.4 OD
same,"NFκB luc, 0.91 ng/ml, w/o x linker",[7],14100 RLU
same,"NFκB luc, 0.91 ng/ml, with x linker",[7],16600 RLU
same,"NFκB luc, 3.66 ng/ml, w/o x linker",[7],14400 RLU
same,"NFκB luc, 3.66 ng/ml, with x linker",[7],20100 RLU
same,"NFκB luc, 14.64 ng/ml, w/o x linker",[7],14700 RLU
same,"NFκB luc, 14.64 ng/ml, with x linker",[7],24600 RLU
same,"NFκB luc, 58.59 ng/ml, w/o x linker",[7],16900 RLU
same,"NFκB luc, 58.59 ng/ml, with x linker",[7],24100 RLU
same,"NFκB luc, 234.4 ng/ml, w/o x linker",[7],18100 RLU
same,"NFκB luc, 234.4 ng/ml, with x linker",[7],30500 RLU
same,"NFκB luc, 937.5 ng/ml, w/o x linker",[7],17900 RLU
same,"NFκB luc, 937.5 ng/ml, with x linker",[7],30100 RLU
same,"NFκB luc, 3750 ng/ml, w/o x linker",[7],17300 RLU
same,"NFκB luc, 3750 ng/ml, with x linker",[7],28900 RLU
same,"NFκB luc, 15000 ng/ml, w/o x linker",[7],19100 RLU
same,"NFκB luc, 15000 ng/ml, with x linker",[7],23800 RLU
same,rel. fit bottom (OD),[8],0.5 OD
same,binding result,[9],no binding (tested: 300 nM)
